Changes are numbered by the printed parent chain. Names and notes keep the numbering of the source.
Legend:
[1] = system: transgenic T1 soybean events; experiment: Field trials of T1 soybean events, leaf damage eight days after application; assay type: in vivo
Description: Soybean plants expressing an HPPD inhibitor tolerant polypeptide of the present invention alone, or along with a gene conferring tolerance to glyphosate and/or a gene conferring tolerance to glufosinate or having a “plant expression cassette”, which includes only an HPPD inhibitor tolerant polypeptide of the present invention, were tested for tolerance to different HPPD inhibitor herbicide chemical classes. The transgenic plants were routinely analyzed for the expression and presence of the transgenes using the ELISA protein detection method (see detailed description under item D and H). Only plants recovering in the selection media and having a detectable HPPD transgene protein expression were regenerated, transferred to the greenhouse and used at V2-V4 growth stage for the HPPD inhibitor herbicide tolerance analysis of the T0 soybean events in the greenhouse (Example 6). The chemical formulation with HPPD inhibitor herbicides was supplemented with ammonium sulfate and methyl ester rapeseed oil. Herbicide tolerance evaluation was taken 5-21 days after spraying. The best performing independent T0 soybean events were selfed to produce T1 soybean seeds. In the field trails, the advanced T1 soybean seeds were planted and treated with either 210 g/ha of isoxaflutole or 150 g/ha of Cmpd.
In Table 10, the frequency of the soybean events showing a good tolerance, i.e. equal or less than 15% damage of the total leaf area are summarized

[2] = system: transgenic soybean T0 events; experiment: Additional greenhouse trials of T0 soybean events, leaf damage score 0-100 as percentiles; assay type: in vivo; details: Cmpd. 1 300 g AI/ha, five days
How it was run: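 Independent T0 events (21 to 94 per construct, single cassette insertion) expressing mutant HPPD were sprayed with HPPD inhibitor herbicide in the greenhouse. Leaf damage scored 5 days after application from 0 (no damage) to 100 (complete bleaching). Scores reported as percentile distributions (25th, median, 75th) per construct.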

[3] = system: E. coli cells expressing an HPPD polypeptide; experiment: Brown Color Assay on solid LB-agar, visual score of brown pigment; assay type: cell-based; parameters: key to brown pigment formation: +++: a dark brown coloring as seen for E. coli cells expressing one of the respective mutant HPPD polypeptide without inhibitor; ++: medium brown pigmentation; +: light brown pigmentation; 0: no brown pigmentation development was detected on the LB agar plates
Description: Mutant HPPD polypeptides were analyzed using a brown color assay (WO2014/043435). Bacterial cells expressing the mutant HPPD polypeptide according to the invention were assayed in 96 well format for HPPD inhibitor tolerance by spotting on solid media containing LB-agar, selection agent for the expression vector pSE420(RI)NX (WO2014/043435), 5 mM tyrosine (Sigma-Aldrich, St. Louis, USA), 42 mM succinate (Sigma-Aldrich, St. Louis, USA) and six different concentrations of the HPPD inhibitor herbicide Cmpd. 1 (0-500 μM). In the brown color assay, an overnight culture of the E. coli cells expressing one of the respective mutant HPPD polypeptides were diluted to an OD600 of 1 and 10 μl extract was spotted in triplicates on plates containing 0, 25, 50, 100, 250, or 500 μM of Cmpd. 1. Plates were covered with airpore tape and incubated at 30 degrees C. After 24 hours, the cells were kept in darkness at room temperature and after 7 days the brown pigment formation was scored visually. In the presence of an HPPD inhibitor herbicide, this pigment formation is inhibited and the color of the agar plate will not alter, unless an HPPD inhibitor herbicide tolerant HPPD polypeptide is expressed and active. […] The “++” and “+” scores a medium and light brown pigmentation, respectively, and the “0” means that no brown pigmentation development was detected on the LB agar plates.

[4] = system: transgenic soybean T0 events; experiment: Greenhouse spray test of T0 soybean events, herbicide tolerance rating 0-3; assay type: in vivo; details: Cmpd. 1 300 g AI/ha; for number of events with Herbicide Tolerance Rating 0: five days after application; for Percentage events rated “2 & 3” / number of events with Herbicide Tolerance Rating 1 / number of events with Herbicide Tolerance Rating 2 / number of events with Herbicide Tolerance Rating 3 / proportion of T0 soybean events with less than 10% leaf damage: five days; for Percentage events rated “2 & 3”: less than 50% leaf damage; for number of events with Herbicide Tolerance Rating 1: rating 1 = slight tolerance, 50-95% leaf damage; for number of events with Herbicide Tolerance Rating 2: rating 2 = moderate tolerance, 10-49% of leaf area; for number of events with Herbicide Tolerance Rating 3: rating 3 = good tolerance, less than 10% of leaf area
Description: Tolerant green shoots were transferred to rooting media or grafted. Rooted plantlets were transferred to the greenhouse after an acclimation period. Plants containing the transgene were then sprayed with HPPD inhibitor herbicides, as for example with mesotrione at a rate of 300-600 g AI/ha, or with Cmpd. […] Five to ten days after the application, the symptoms due to the application of the herbicide were evaluated and compared to the symptoms observed on wild-type plants under the same conditions.
For example, T0 soybean plants having a “plant expression cassette”, which includes an HPPD inhibitor tolerant HPPD polypeptide of the present invention, were tested towards the tolerance of Cmpd. 1.
Prior greenhouse trials with the transgenic plants, soybean transformants were routinely analyzed for the expression and presence of the transgenes using the ELISA protein detection method (see detailed description under item D and H). Only plants recovering in the selection media and having a detectable HPPD transgene protein expression were used for the herbicide tolerance analysis. A DeVries Tracker Sprayer was calibrated prior to each spraying. The chemical formulation used for Cmpd. 1 was supplemented with ammonium sulfate and methylated rape seed oil. Spray tests were conducted with a concentration, which equals to 300 grams AI per hectare (300 g AI/ha). Tolerance was evaluated 5 days after spraying. […] A rating of “3” was assigned to plants showing good tolerance, i.e. less than 10% of the leaf area from the top three trifoliate leaves showing chlorosis or only very slight bleaching.

[5] = system: E. coli cells expressing an HPPD polypeptide; experiment: Brown color bioassay in liquid culture, residual brown color formation (BCF), OD440 after 96 hours; assay type: cell-based; details: Cmpd. 1 1000 μM, 96 hours
How it was run: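 E. coli expressing HPPD variants were grown at 30 degrees Celsius from OD600 0.3-0.5 in LB with 5 mM HPP, with or without herbicide (e.g. Cmpd. 1, 1000 μM). After 96 hours, supernatant OD440 was measured; residual brown colour formation compares pigment with and without inhibitor.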

[6] = 25 μM Cmpd. 1, scored after 7 days
[7] = 50 μM Cmpd. 1, scored after 7 days
[8] = 100 μM Cmpd. 1, scored after 7 days
[9] = 250 μM Cmpd. 1, scored after 7 days
[10] = 500 μM Cmpd. 1, scored after 7 days
[11] = 150 g/ha Cmpd. 1, stage V2-V4, eight days after application
[12] = 210 g/ha isoxaflutole, stage V2-V4, eight days after application

Molecule: CS(=O)(=O)c1cc(C(F)(F)F)ccc1C(=O)c1cnoc1C1CC1 [isoxaflutole, (5-cyclopropyl-4-isoxazolyl)[2-(methylsulfonyl)-4-(trifluoromethyl)phenyl]methanone, reference compound]
- leaf damage ([1]; wild-type or segregated T1 soybean plants without tolerant polypeptide, 210 g/ha isoxaflutole or 150 g/ha Cmpd. 1, eight days): 100%

B1: SEQ ID NO: 2: prior art mutant HPPD polypeptide (WO2014/043435): E335P G336W K339A A340Q (protein)
chain: MADLYENPMGLMGFEFIEFASPTPGTLEPIFEIMGFTKVATHRSKNVHLYRQGEINLILNNEPNSIASYFAAEHGPSVCGMAFRVKDSQKAYNRALELGAQPIHIDTGPMELNLPAIKGIGGAPLYLIDRFGEGSSIYDIDFVYLEGVERNPVGAGLKVIDHLTHNVYRGRMVYWANFYEKLFNFREARYFDIKGEYTGLTSKAMSAPDGMIRIPLNEESSKGAGQIEEFLMQFNGEGIQHVAFLTDDLVKTWDALKKIGMRFMTAPPDTYYEMLEGRLPDHGEPVDQLQARGILLDGSSVEGDKRLLLQIFSETLMGPVFFEFIQRKGDDGFGPWNFAQLFESIERDQVRRGVLTAD
modifications: mutant HPPD polypeptide
notes: prior art mutant HPPD polypeptide (WO2014/043435): E335P G336W K339A A340Q
- leaf damage score, Interquartile range ([2]; 75th minus 25th percentile): 30.0
- leaf damage score, 25th percentile ([2]; scale 0 (no damage) to 100 (complete bleaching)): 15.0
- leaf damage score, 75th percentile ([2]; scale 0-100): 45.0
- leaf damage score, 90th percentile ([2]; scale 0-100): 87.0
- leaf damage score, Median ([2]; scale 0-100): 20.0
- brown pigment formation [3, 6]: ++
- brown pigment formation [3, 7]: ++
- brown pigment formation [3, 8]: ++
- brown pigmentation, in words ([3]; 250 μM Cmpd. 1): only a slight brown pigmentation
- brown pigment formation [3, 9]: +
- brown pigmentation, in words ([3]; 500 μM Cmpd. 1): lost their brown pigmentation
- brown pigment formation [3, 10]: 0
- number of events with Herbicide Tolerance Rating 0 [4]: 5
- Percentage events rated “2 & 3” [4]: 83.3%
- number of events with Herbicide Tolerance Rating 1 [4]: 10
- number of events with Herbicide Tolerance Rating 2 [4]: 26
- number of events with Herbicide Tolerance Rating 3 [4]: 49
- Frequency in the population (events with ≤15% leaf damage) [1, 11]: 41%
- Independent events with ≤15% leaf damage after spray [1, 11]: 16
- Frequency in the population (events with ≤15% leaf damage) [1, 12]: 26%
- Independent events with ≤15% leaf damage after spray [1, 12]: 10
- brown pigmentation in the presence of the HPPD inhibitor, in words [5]: did not produce a substantial brown pigmentation

B2: SEQ ID NO: 32: mutant HPPD polypeptide: P268R T270E E335P G336H N337S A340V I345V (protein)
chain: B1 chain with P268R, T270E, W336H, N337S, A339K, Q340V, I345V
modifications: mutant HPPD polypeptide
notes: mutant HPPD polypeptide: P268R T270E E335P G336H N337S A340V I345V
- brown pigment formation [3, 6]: +++
- brown pigment formation [3, 7]: +++
- brown pigment formation [3, 8]: +++
- brown pigment formation [3, 9]: ++
- brown pigment formation [3, 10]: +
- proportion of T0 soybean events with less than 10% leaf damage [4]: ~72%
- number of events with Herbicide Tolerance Rating 0 [4]: 1
- number of events with Herbicide Tolerance Rating 1 [4]: 0
- number of events with Herbicide Tolerance Rating 2 [4]: 10
- number of events with Herbicide Tolerance Rating 3 [4]: 28
- Frequency in the population (events with ≤15% leaf damage) [1, 11]: 42%
- Independent events with ≤15% leaf damage after spray [1, 11]: 10
- Frequency in the population (events with ≤15% leaf damage) [1, 12]: 50%
- Independent events with ≤15% leaf damage after spray [1, 12]: 12

B3: SEQ ID NO: 31: mutant HPPD polypeptide: P268G T270E E335P G336H N337S A340V I345V (protein)
chain: B1 chain with P268G, T270E, W336H, N337S, A339K, Q340V, I345V
modifications: mutant HPPD polypeptide
notes: mutant HPPD polypeptide: P268G T270E E335P G336H N337S A340V I345V
- brown pigment formation [3, 6]: +++
- brown pigment formation [3, 7]: +++
- brown pigment formation [3, 8]: +++
- brown pigment formation [3, 9]: ++
- brown pigment formation [3, 10]: +
- number of events with Herbicide Tolerance Rating 0 [4]: 4
- number of events with Herbicide Tolerance Rating 1 [4]: 1
- number of events with Herbicide Tolerance Rating 2 [4]: 21
- number of events with Herbicide Tolerance Rating 3 [4]: 30
- Frequency in the population (events with ≤15% leaf damage) [1, 11]: 86%
- Independent events with ≤15% leaf damage after spray [1, 11]: 12
- Frequency in the population (events with ≤15% leaf damage) [1, 12]: 93%
- Independent events with ≤15% leaf damage after spray [1, 12]: 13

B4: SEQ ID NO: 96: mutant HPPD polypeptide: R213K P268G T270E E335P G336H N337S A340V I345V (protein)
chain: B1 chain with R213K, P268G, T270E, W336H, N337S, A339K, Q340V, I345V
modifications: mutant HPPD polypeptide
notes: mutant HPPD polypeptide: R213K P268G T270E E335P G336H N337S A340V I345V
- brown pigment formation [3, 6]: +++
- brown pigment formation [3, 7]: ++
- brown pigment formation [3, 8]: ++
- brown pigment formation [3, 9]: ++
- brown pigment formation [3, 10]: +
- number of events with Herbicide Tolerance Rating 0 [4]: 0
- number of events with Herbicide Tolerance Rating 1 [4]: 5
- number of events with Herbicide Tolerance Rating 2 [4]: 43
- number of events with Herbicide Tolerance Rating 3 [4]: 34
- Frequency in the population (events with ≤15% leaf damage) [1, 11]: 70%
- Independent events with ≤15% leaf damage after spray [1, 11]: 14
- Frequency in the population (events with ≤15% leaf damage) [1, 12]: 55%
- Independent events with ≤15% leaf damage after spray [1, 12]: 11

B5: SEQ ID NO:2 (protein)
chain: B1 chain
modifications: mutant HPPD polypeptide
- proportion of T0 soybean events with less than 10% leaf damage [4]: 54%
- Percentage events rated “2 & 3” [4]: 83%

B6: SEQ ID NO: 16: mutant HPPD polypeptide: P268S T270S E335P G336D N337S A340V I345K (protein)
chain: B1 chain with P268S, T270S, W336D, N337S, A339K, Q340V, I345K
modifications: mutant HPPD polypeptide
notes: mutant HPPD polypeptide: P268S T270S E335P G336D N337S A340V I345K
- Frequency in the population (events with ≤15% leaf damage) [1, 11]: 95%
- Independent events with ≤15% leaf damage after spray [1, 11]: 19
- Frequency in the population (events with ≤15% leaf damage) [1, 12]: 95%
- Independent events with ≤15% leaf damage after spray [1, 12]: 19

Source: patent US10597674B2, “HPPD variants and methods of use” (BASF Agricultural Solutions Seed, US LLC, priority 2015, dated 2020)
